What all share (details): both partners purified
In test [1] the target is T1, RSV N-RNA complex (full-length N protein in ring-shaped complexes with bacterial RNA) (human respiratory syncytial virus, UniProt P03418 1-391).
T1 construct: human RSV nucleoprotein N, full length; concentrations are of N protomer; also called N-RNA rings; source: in lysate for the co-purification; purified (glutathione-Sepharose, thrombin, Superdex 200) as N-RNA complex; copies: 10-11
T1 sequence (looked up): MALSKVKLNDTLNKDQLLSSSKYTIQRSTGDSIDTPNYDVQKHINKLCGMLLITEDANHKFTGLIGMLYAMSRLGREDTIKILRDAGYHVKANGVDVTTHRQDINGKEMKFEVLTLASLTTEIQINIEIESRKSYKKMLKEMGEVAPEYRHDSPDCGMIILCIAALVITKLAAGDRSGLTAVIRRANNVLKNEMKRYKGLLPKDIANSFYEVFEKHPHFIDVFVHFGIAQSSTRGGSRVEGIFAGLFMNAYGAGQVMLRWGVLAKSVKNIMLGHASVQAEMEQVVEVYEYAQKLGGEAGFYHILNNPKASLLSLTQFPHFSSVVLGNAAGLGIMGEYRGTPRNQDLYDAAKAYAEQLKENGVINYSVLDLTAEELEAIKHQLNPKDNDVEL
The experiment in a line: fluorescence polarisation; 200 nM dicyano BODIPY FL-labelled BCNn peptide, N-RNA varied; 20 mM Tris pH 8.0 without salt, 0.01% Brij-35; 20 °C; single site model. In general terms: In fluorescence polarisation assays a small probe gives low polarisation when free and higher when bound to something large.

The target in test [2] is T1, RSV N-RNA complex (full-length N …). Kind of test: fluorescence polarisation; competition: unlabeled P5E varied against 200 nM F5E on 10 µM N-RNA; Tris pH 8 without salt; Hill equation; Ki from the IC50-to-Ki server.
The target is the same in test [3]. Kind of test: fluorescence polarisation; competition: unlabeled P peptide varied against 200 nM F11 on 10 µM N-RNA; Tris pH 8 without salt; Hill equation; Ki from the IC50-to-Ki server.
For test [4] the target is unchanged. The experiment in a line: fluorescence polarisation; 200 nM dicyano BODIPY FL-labelled BCNn peptide, N-RNA varied; 20 mM Tris pH 8.0 with 100 mM NaCl, 0.01% Brij-35; 20 °C; single site model.
Test [5] shares this target. Kind of test: fluorescence polarisation; competition: unlabeled P7E varied against 200 nM F7E on 10 µM N-RNA; Tris pH 8 without salt; Hill equation; Ki from the IC50-to-Ki server.
For test [6] the target is unchanged. Kind of test: fluorescence polarisation; 200 nM FTU-labelled Fn peptide, N-RNA varied (up to 40 µM N); 20 mM Tris pH 8.0 without salt, 0.01% Brij-35; 20 °C; 30 min incubation; single site model, or with a linear contribution where marked (*).

The values below come from paper PMC9820559, “Investigation of the Fuzzy Complex between RSV Nucleoprotein and Phosphoprotein to Optimize an Inhibition Assay by Fluorescence Polarization” (International Journal of Molecular Sciences, 2022).

Ends that are not written are not given here. * marks the point of attachment. dicyano BODIPY FL = CC1=CC(C)=[N+]2C1=Cc1ccc(CCC(=O)*)n1[B-]2(C#N)C#N; FITC = O=C1OC2(c3ccc(O)cc3Oc3cc(O)ccc32)c2ccc(NC(=S)*)cc21

B1: BCN9E (dicyano BODIPY FL-labelled RSV P 9-mer, Ser237Glu) (peptide)
peptide: {dicyano BODIPY FL}-DNDLELEDF
notes: C-terminal 9 residues of RSV phosphoprotein P with a phosphomimetic glutamate at 237; also called B9E; source: synthetic peptide (Fmoc/tBu solid phase, dicyano BODIPY FL coupled on resin, RP-HPLC purified)
The term Kd denotes a measure of binding affinity in units of concentration. Turning to B1, the Kd in test [1] was 0.96 ± 0.13 µM.

B2: P5E (unlabeled RSV P 5-mer, Ser237Glu) (peptide)
peptide: ELEDF
notes: unlabeled peptide from which F5E was made; C-terminal 5 residues of RSV phosphoprotein P; source: synthetic peptide (Fmoc/tBu solid phase, RP-HPLC purified)
Broadly, the IC50 is the midpoint of a concentration-inhibition curve. In general, Ki refers to a dissociation constant, usually derived from enzyme kinetics or from competition with a known ligand. For the molecule B2, in test [2], the IC50 turned out to be 433 ± 21 µM and the Ki amounted to 158 µM.

B3: P9E (unlabeled RSV P 9-mer, Ser237Glu) (peptide)
peptide: DNDLELEDF
notes: unlabeled peptide from which F9E was made; C-terminal 9 residues of RSV phosphoprotein P; source: synthetic peptide (Fmoc/tBu solid phase, RP-HPLC purified)
For the molecule B3, in test [3], the IC50 stood at 66 ± 6 µM and the Ki turned out to be 25 µM.

B4: BCN_(10EE) (dicyano BODIPY FL-labelled RSV P 10-mer, Ser232Glu/Ser237Glu) (peptide)
peptide: {dicyano BODIPY FL}-EDNDLELEDF
notes: C-terminal 10 residues of RSV phosphoprotein P with phosphomimetic glutamates at 232 and 237; also called B_(10EE); source: synthetic peptide (Fmoc/tBu solid phase, dicyano BODIPY FL coupled on resin, RP-HPLC purified)
Take B4: the Kd in test [4] was 1.24 ± 0.31 µM; in test [1] it was 0.16 ± 0.03 µM.

B5: BCN8E (dicyano BODIPY FL-labelled RSV P 8-mer, Ser237Glu) (peptide)
peptide: {dicyano BODIPY FL}-NDLELEDF
notes: C-terminal 8 residues of RSV phosphoprotein P with a phosphomimetic glutamate at 237; also called B8E; source: synthetic peptide (Fmoc/tBu solid phase, dicyano BODIPY FL coupled on resin, RP-HPLC purified)
Consider B5, for which the Kd was 7.1 ± 0.1 µM in test [4] and 1.43 ± 0.08 µM in test [1].

B6: BCN_(11SE) (dicyano BODIPY FL-labelled RSV P 11-mer, Ser237Glu) (peptide)
peptide: {dicyano BODIPY FL}-DSDNDLELEDF
notes: C-terminal 11 residues of RSV phosphoprotein P with a phosphomimetic glutamate at 237; source: synthetic peptide (Fmoc/tBu solid phase, dicyano BODIPY FL coupled on resin, RP-HPLC purified)
As to B6, the results for the Kd in test [4] and in test [1] were 0.55 ± 0.07 µM and 0.82 ± 0.22 µM, respectively.

B7: P7E (unlabeled RSV P 7-mer, Ser237Glu) (peptide)
peptide: DLELEDF
notes: unlabeled peptide from which F7E was made; C-terminal 7 residues of RSV phosphoprotein P; source: synthetic peptide (Fmoc/tBu solid phase, RP-HPLC purified)
B7: in test [3], the IC50 was 180 ± 11 µM and the Ki was 75 µM. Further, in test [5], the half-inhibitory concentration (IC50) worked out at 376 ± 26 µM and the Ki was 74 µM.

B8: F5E (FTU-labelled RSV P 5-mer, Ser237Glu) (peptide)
peptide: {FITC}-ELEDF
notes: C-terminal 5 residues of RSV phosphoprotein P with a phosphomimetic glutamate at 237; source: synthetic peptide (Fmoc/tBu solid phase), FITC coupled in solution, HPLC purified
In the case of B8, in test [6], the Kd worked out at 5.9 ± 0.5 µM.
